Reference: patent publication US20250326823A1

How the values were obtained:
Test in all cases: cell-based or functional assay
[1] = target: SARS-CoV-2 D614G spike (S) protein (SARS-CoV-2) (UniProt P0DTC2)
[2] = target: SARS-CoV-2 spike (S) protein, variant BA.1 (SARS-CoV-2) (UniProt P0DTC2)
[3] = target: SARS-CoV-2 spike (S) protein, variant BA.4/5 (SARS-CoV-2) (UniProt P0DTC2)
[4] = target: SARS-CoV-2 spike (S) protein, variant BQ.1.1 (SARS-CoV-2) (UniProt P0DTC2)
[5] = target: SARS-CoV-2 spike (S) protein, variant FL.1.5.1 (SARS-CoV-2)
[6] = target: SARS-CoV-2 spike (S) protein, variant HK.3 (SARS-CoV-2)
[7] = target: SARS-CoV-2 spike (S) protein, variant HV.1 (SARS-CoV-2)
[8] = target: SARS-CoV-2 spike (S) protein, variant JF.1 (SARS-CoV-2)
[9] = target: SARS-CoV-2 spike (S) protein, variant XBB.1 (SARS-CoV-2) (UniProt P0DTC2)
[10] = target: SARS-CoV-2 spike (S) protein, variant XBB.1.16 (SARS-CoV-2) (UniProt P0DTC2)
[11] = target: SARS-CoV-2 spike (S) protein, variant XBB.1.5 (SARS-CoV-2) (UniProt P0DTC2)
[12] = target: SARS-CoV-2 spike (S) protein, variant XBC.1 (SARS-CoV-2) (UniProt P0DTC2)
[13] = target: SARS-CoV-2 spike (S) protein, D614G (SARS-CoV-2) (UniProt P0DTC2)
[14] = target: SARS-CoV-2 spike (S) protein, variant BA.2.86 (SARS-CoV-2)
[15] = target: SARS-CoV-2 spike (S) protein, variant CH.1.1 (SARS-CoV-2)
[16] = target: SARS-CoV-2 spike (S) protein, variant EG.5.1 (SARS-CoV-2)
[17] = target: SARS-CoV-2 spike (S) protein, variant JN.1 (SARS-CoV-2)
[18] = target: SARS-CoV-2 spike (S) protein, variant KP.2 (SARS-CoV-2)
[19] = target: SARS-CoV-2 spike (S) protein, variant KP.2.3 (SARS-CoV-2)
[20] = target: SARS-CoV-2 spike (S) protein, variant KP.3 (SARS-CoV-2)
[21] = target: SARS-CoV-2 spike (S) protein, variant KP.3.1.1 (SARS-CoV-2)
[22] = target: SARS-CoV-2 spike (S) protein, variant LB.1 (SARS-CoV-2)
[23] = target: SARS-CoV-2 spike (S) protein, variant XEC (SARS-CoV-2)
[24] = target: SARS-CoV-2 spike (S) protein, variant JN.1.13.1 (SARS-CoV-2)
[25] = target: SARS-CoV-2 spike (S) protein, variant KP.2 (SARS-CoV-2); remark: listed apart in the source
[26] = target: SARS-CoV-2 spike (S) protein, variant KP.2.3 (SARS-CoV-2); remark: listed apart in the source
[27] = target: SARS-CoV-2 spike (S) protein, variant LB.1 (SARS-CoV-2); remark: listed apart in the source

Substance: AZD3152 (antibody)
- pseudovirus neutralization IC50 [1]: 0.015 µg/mL
- pseudotyped neutralization potency IC50 [2]: 0.123 nM
- pseudotyped neutralization potency IC80 [2]: 0.313 nM
- pseudotyped neutralization potency IC50 [3]: 0.102 nM
- pseudotyped neutralization potency IC80 [3]: 0.266 nM
- pseudotyped neutralization potency IC50 [4]: 0.392 nM
- pseudotyped neutralization potency IC80 [4]: 0.944 nM
- IC50, pseudovirus neutralization [5]: > 67 nM
- IC80, pseudovirus neutralization [5]: > 67 nM
- IC50, pseudovirus neutralization [6]: > 67 nM
- IC80, pseudovirus neutralization [6]: > 67 nM
- IC50, pseudovirus neutralization [7]: > 67 nM
- IC80, pseudovirus neutralization [7]: > 67 nM
- IC50, pseudovirus neutralization [8]: > 67 nM
- IC80, pseudovirus neutralization [8]: > 67 nM
- pseudotyped neutralization potency IC50 [9]: 0.096 nM
- pseudotyped neutralization potency IC80 [9]: 0.302 nM
- pseudotyped neutralization potency IC50 [10]: 0.092 nM
- pseudotyped neutralization potency IC80 [10]: 0.381 nM
- pseudotyped neutralization potency IC50 [11]: 0.12 nM
- pseudotyped neutralization potency IC80 [11]: 0.308 nM
- pseudotyped neutralization potency IC50 [12]: 0.0322 nM
- pseudotyped neutralization potency IC80 [12]: 0.209 nM
- neutralization IC50 [13]: 0.015 µg/mL
- neutralization IC50 [14]: 0.053 µg/mL
- neutralization IC50 [15]: 0.045 µg/mL
- neutralization IC50 [16]: > 10 µg/mL
- neutralization IC50 [17]: 0.766 µg/mL
- neutralization IC50 [18]: > 10 µg/mL
- neutralization IC50 [19]: > 10 µg/mL
- neutralization IC50 [20]: > 10 µg/mL
- neutralization IC50 [21]: > 10 µg/mL
- neutralization IC50 [22]: > 10 µg/mL
- neutralization IC50 [23]: > 10 µg/mL

Substance: ADG20 (antibody)
- pseudovirus neutralization IC50 [24]: > 67 nM
- pseudovirus neutralization IC80 [24]: > 67 nM
- pseudovirus neutralization IC50 [25]: > 67 nM
- pseudovirus neutralization IC80 [25]: > 67 nM
- pseudovirus neutralization IC50 [26]: > 67 nM
- pseudovirus neutralization IC80 [26]: > 67 nM
- pseudovirus neutralization IC50 [27]: > 67 nM
- pseudovirus neutralization IC80 [27]: > 67 nM
- neutralization IC50 [13]: 0.003 µg/mL
- neutralization IC50 [14]: > 10 µg/mL
- neutralization IC50 [15]: 2.06 µg/mL
- neutralization IC50 [16]: > 10 µg/mL
- neutralization IC50 [17]: > 10 µg/mL
- neutralization IC50 [18]: > 10 µg/mL
- neutralization IC50 [19]: > 10 µg/mL
- neutralization IC50 [20]: > 10 µg/mL
- neutralization IC50 [21]: > 10 µg/mL
- neutralization IC50 [22]: > 10 µg/mL
- neutralization IC50 [23]: > 10 µg/mL
